From patent US20230159645A1 (MERUS N V, published 2023)

What was measured:
human TGF-βRII [1] = biological target: T1, human TGF-βRII (human, UniProt P37173 23-567); experiment: cell-based or functional assay
T1 chain: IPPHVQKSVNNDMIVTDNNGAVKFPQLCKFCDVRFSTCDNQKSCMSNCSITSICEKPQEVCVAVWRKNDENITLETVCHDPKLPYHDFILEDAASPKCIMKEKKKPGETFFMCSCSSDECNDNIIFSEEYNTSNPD

human TGF-βRII [2] = biological target: T1, human TGF-βRII; experiment: cell-based or functional assay

HEK-BLUE-PD-1 TGF-β Reporter Assay, HEK-Blue TGF-β cells (human TGF-βRII [1]): 0.806
HEK-BLUE-PD-1 TGF-β Reporter Assay, HEK-Blue TGF-β-PD-1+ cells (human TGF-βRII [1]): 0.655
Fold difference pSMAD PD-1^null vs PD-1^+ (human TGF-βRII [2]): 1.3 fold
B1: Reference TGF-βRII antibody TGF1 analog (antibody, human IgG1, kappa, V domains shown)
VH: QLQVQESGPGLVKPSETLSLTCTVSGGSISNSYFSWGWIRQPPGKGLEWIGSFYYGEKTYYNPSLKSRATISIDTSKSQFSLKLSSVTAADTAVYYCPRGPTMIRGVIDSWGQGTLVTVSS
VL: EIVLTQSPATLSLSPGERATLSCRASQSVRSYLAWYQQKPGQAPRLLIYDASNRATGIPARFSGSGSGTDFTLTISSLEPEDFAVYYCQQRSNWPPTFGQGTKVEIKR
